The test system of one data set is THP-1 cells. The data set can be described thus: Cholesterol efflux from cholesterol-laden human THP-1 cells. In kind it is cell-based. Particulars: liposomal formulations; cholesterol-laden THP-1 cells differentiated with phorbol myristate acetate. The method, then:
These monocytes were differentiated into macrophages with phorbol myristate acetate (100 nM). In these experiments, cholesterol-laden human THP-1 cells were exposed to liposomal formulations comprising a peptide corresponding to amino acids 1-20 of murine SAA2.1 (SEQ ID NO:1), a peptide corresponding to amino acids 74-103 of murine SAA2.1 (SEQ ID NO:4), a peptide corresponding to amino acids 1-20 of murine SAA1.1 plus an arginine at the N-terminus (SEQ ID NO:7), or a peptide corresponding to amino acids 1-20 of murine SAA2.1 (SEQ ID NO:1) and a peptide corresponding to amino acids 74-103 (SEQ ID NO:4) of murine SAA2.1. Results from these experiments are depicted in FIG. 4. […] Studies were carried out to determine whether murine SAA2.1 increases cholesterol export from a human derived monocytic cell line, THP-1 (obtained from American Type Culture Collection, Manassas, Va.; ATCC#TIB-202). Human monocytes were cultured in T-75 flasks with 30 ml RPMI 1640 medium containing 2 mM L-glutamine, 4.5 g/L glucose, 10 mM HEPES, 1.0 mM […] and supplemented with 0.05 mM 2-mercaptoethanol and 10% fetal bovine serum. Subsequently, five million cells were placed in each well of a 6-well tissue culture plate. The monocytes were differentiated into macrophages by treatment with phorbol myristate acetate (100 nM). THP-1 macrophages were enriched with cholesterol by incubating with red blood cells membrane fragments (175 μg as cholesterol) that had been previously labelled with 0.5 μCi/mL[^3H]-cholesterol at 37° C. for 6 hours in 0.2% bovine serum albumin, followed by an overnight equilibration period. Cells were washed four times with PBS/BSA prior to efflux studies. Cells were then incubated at 37° C. with 2 mL RPMI-BSA containing 5% LPDS and 50 μg/mL of either native HDL, SAA-HDL, liposomes containing 2 μmoles of apoA-I, SAA1.1 or 2.1, or liposomes containing 0.5 μmoles synthetic peptides corresponding to amino acid residues 1-20 (SEQ ID NO:1), 21-50 (SEQ ID NO:2), 51-80 (SEQ ID NO:3) or 74-103 (SEQ ID NO:4) of murine SAA2.1. The efflux media were collected at 0, 1, 2, 4, 8, 16 and 24 hours, centrifuged to remove cell debris, and then used to measure the exported counts. […] A portion of the cells was lysed in 0.1N NaOH to estimate both the remaining radioactivity and the cellular protein content. Cellular lipids were extracted from the remaining portion of the cells and analyzed by thin-layer chromatography as described by Mendez et al. (J. Clin. Invest. 1994 94:1698-1705) and Oram et al. (Arterioscler. Thromb. 1991 11:403-414). The radioactivity in appropriate spots was measured to determine total cellular cholesterol counts. Efflux of radioactive label to the medium was calculated as the percentage of total counts (cell+medium counts) in each well.

In data set [1] the test system is cholesterol ester hydrolase. The data set can be described thus: Rate of hydrolysis of cholesteryl ester in cholesterol-laden J774 cells (cholesterol ester hydrolase activity). In kind it is cell-based, murine. The method, then:
Identification of the domain of SAA2.1 that is responsible for enhancing cholesterol ester hydrolase activity was performed in J774 cells preloaded with radio-labeled cholesteryl esters. These experiments were performed in the presence of Sandoz 58-035, an inhibitor of acyl CoA:cholesterol acyl transferase activity, to prevent re-esterification of liberated cholesterol and [^14C]oleate. Incubations proceeded for times ranging from 0 to 24 hours, following which the remaining quantities of [^14C]-labeled cholesteryl oleate in cells were measured to determine the rate of hydrolysis of cholesteryl ester. […] However, an equivalent amount of liposomes containing the synthetic peptide corresponding to amino acid residues 74-103 of murine SAA2.1 caused a 3-fold increase in cholesterol ester hydrolase activity in these cholesterol-laden murine cells. Newly confluent J774 cells were labeled with [^14C]-oleate during cholesterol loading with red blood cell membranes as described above. Cells were then incubated for up to 24 hours with 2 mL of DMEM containing 5% LPDS and 50 μg/mL of either native HDL, SAA-HDL, liposomes containing 2 μmoles of apoA-1, SAA1.1 or 2.1, or liposomes containing 0.5:mol synthetic peptides corresponding to amino acid residues 1-20 (SEQ ID NO:1), 21-50 (SEQ ID NO:2), 51-80 (SEQ ID NO:3) and 74-103 (SEQ ID NO:4) of murine SAA2.1. To determine the rate of cholesteryl ester hydrolysis, 2 μg/mL of the acyl CoA:cholesterol acyl transferase inhibitor Sandoz 58-035 (propanimide, 3-(decyldimethylsilyl)-N-[2-(4-methylphenyl)-1-phenylethyl]-(9Cl) was added during incubation with lipoproteins or liposomes to prevent […] and free cholesterol. To examine whether or not the rate of cholesteryl ester hydrolysis involved the lysosomal cholesteryl ester hydrolase, the cells were cultured in the presence of 50 μg/mL of either native HDL and chloroquine or SAA-HDL and chloroquine (100:M). Chloroquine is an agent that neutralizes the lysosomal proton gradient. At various time points, cellular lipids were extracted and analyzed for cholesteryl ester radioactivity as described above.

In data set [2] the target is T1, acyl CoA:cholesterol acyl transferase (Mus musculus, UniProt Q61263).
T1 construct: The relative activity of acyl CoA:cholesterol acyl transferase was determined in cholesterol-laden cells; host or cells: J774 mouse macrophages, cholesterol-loaded
T1 sequence (Q61263 1-540): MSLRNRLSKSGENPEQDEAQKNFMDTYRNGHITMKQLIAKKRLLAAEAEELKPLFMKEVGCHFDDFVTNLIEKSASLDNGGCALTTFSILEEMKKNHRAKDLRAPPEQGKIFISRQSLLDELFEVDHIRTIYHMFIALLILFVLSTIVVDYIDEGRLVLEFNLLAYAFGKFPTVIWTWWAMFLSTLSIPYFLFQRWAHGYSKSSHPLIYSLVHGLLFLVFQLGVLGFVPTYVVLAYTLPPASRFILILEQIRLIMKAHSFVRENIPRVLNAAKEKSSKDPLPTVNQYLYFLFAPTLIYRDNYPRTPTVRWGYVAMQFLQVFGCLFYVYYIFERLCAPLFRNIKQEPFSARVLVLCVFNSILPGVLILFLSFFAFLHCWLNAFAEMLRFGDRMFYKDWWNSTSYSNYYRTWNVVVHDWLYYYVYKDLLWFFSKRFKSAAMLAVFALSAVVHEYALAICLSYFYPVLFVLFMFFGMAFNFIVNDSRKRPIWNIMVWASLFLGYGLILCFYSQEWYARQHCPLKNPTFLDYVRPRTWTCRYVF
The note with it: intact murine macrophages and post-nuclear homogenates; Ely et al. 2001; cited from earlier work.

Data set [3] has as its target T1, acyl CoA:cholesterol acyl transferase. Kind of data set: ACAT activity in macrophage post-nuclear homogenates. The note with it: macrophage post-nuclear homogenates as enzyme source. In kind it is biochemical, murine. The text has this: The in vitro effects of acute phase-HDL (AP-HDL;HDL-SAA) on acyl CoA:cholesterol acyl transferase and cholesterol ester hydrolase activities and on cellular cholesterol export were studied by the inventors using purified enzymes, cell homogenates, and whole cells. […] In contrast, murine SAA1.1 and apoA-1 had no effect. […] Using macrophages preloaded with radio-labeled cholesterol and injected intravenously into either inflamed or un-inflamed mice, it was shown that the inflamed mice, which have high SAA2.1 levels, effluxed cholesterol more rapidly and to a greater extent (6-fold greater) than their un-inflamed counterparts.

For the next data set, the system named is J774 macrophages. Kind of data set: Cholesterol efflux from cholesterol-laden J774 macrophages to apolipoprotein liposomes with 8-bromo-cAMP or methyl-β-cyclodextrin. In kind it is cell-based, mouse. Particulars: 8-bromo-cAMP 0.3 mM, 12 hours; Sandoz 58-035 present. The source says: The export process of cholesterol is coupled to the ATP binding cassette transporter (ABCA1) pathway. Lipid efflux to apolipoproteins has been shown previously to be stimulated by treatment of murine macrophages with cAMP analogues (Lin et al. 2002 Biochem Biophys Res. Commun. 290:663-669; Oram et al. 2000 J. Biol. Chem. 275:34508-34511). Also, the expression of ABCA1 is induced by cAMP treatment (Lin et al. 2002 Biochem Biophys Res. Commun. 290:663-669; Oram et al. 2000 J. Biol. Chem. 275:34508-34511). The inventors herein examined the effect of 8-bromo-cAMP (0.3 mM) on cholesterol efflux by liposomes containing various apolipoproteins when incubated with cholesterol-laden J774 macrophages. Such cells were pre-labeled with [^3H]-cholesterol in the presence of Sandoz 58-035, an ACAT inhibitor, to ensure that all of the radiolabeled cholesterol released from the cells was derived from the un-esterified cholesterol pool, and the cells were treated for 12 hours with 8-bromo-cAMP. This was followed by incubation with various acceptors. The fractional release of cellular labeled cholesterol was determined as a function of time.
To investigate whether an apolipoprotein free cholesterol acceptor such as cyclodextrin has the ability to catalyze the removal of cholesterol from macrophages, cholesterol-loaded and labeled J774 cells were incubated with liposomes and methyl-β-cyclodextrin (0.1 mM) (CD).
To examine whether cholesterol export from J774 cells to medium containing liposomes containing 2 μM murine apoA-1, SAA1.1 or SAA2.1 is a cAMP-dependent process, the radio-labeled cholesterol-laden cells were incubated overnight with 8-Br-cAMP (0.3 mM), prior to the addition of liposomes containing 2 μM murine apoA-1, SAA1.1 or SAA2.1 to the culture medium. Cholesterol efflux to the medium was then determined at the indicated time points as described above. Efflux of radioactive label to the medium was calculated as a percentage of total counts in each well.

In data set [4] the target is T1, acyl CoA:cholesterol acyl transferase. The data set can be described thus: Incorporation of [14C]oleate into cholesteryl ester in cholesterol-laden macrophages (ACAT activity). In kind it is cell-based, murine. Particulars: lipoproteins or protein liposomes; tissue culture. How it is done: The incorporation of [^14C]oleate into cholesteryl ester was used as a measure of acyl CoA:cholesterol acyl transferase activity to identify compositions inhibiting the enzyme activity. The relative acyl CoA:cholesterol acyl transferase activity was determined in cholesterol-laden murine cells that had been cultured in medium in the absence of liposomes or in the presence of protein-free liposomes or liposomes containing 0.5 μM synthetic peptides corresponding to amino acids 1-20, 21-50, 51-80 and 74-103 of murine SAA2.1.
To load the cells with cholesterol, nearly confluent mono-layers were washed 3 times with phosphate buffered saline containing 2 mg/mL fatty acid-free bovine serum albumin (PBS-BSA) and incubated for 5 hours in DMEM supplemented with 5% lipoprotein-depleted serum (LPDS) (d>1.25 g/mL) and 175 μg of red blood cell membrane cholesterol. For the purpose of pool equilibration of added cholesterol, cell cultures were rinsed twice with PBS-BSA and incubated overnight in DMEM containing 5% LPDS. The relative activity of acyl CoA:cholesterol acyl transferase was determined in cholesterol-laden cells that had been cultured in medium containing no liposomes, protein-free liposomes or liposomes containing 0.5:M synthetic peptides corresponding to amino acid residues 1-20 (SEQ ID NO:1), 21-50 (SEQ ID NO:2), 51-80 (SEQ ID NO:3) or 74-103 (SEQ ID NO:4) of murine SAA2.1, respectively. Following 3 hours incubation with the above media, [^14C]-oleate was added and the cells were incubated for another 3 hour period (Mendez et al. J. Clin. Invest. 1994 94:1698-1705; Oram et al. Arterioscler. Thromb. 1991 11:403-414). Cells were chilled on ice and washed twice with PBS-BSA and twice with PBS. After addition of [^3H]-cholesteryl oleate (6000 dpm/well) as an internal standard, the lipids were extracted from the labeled cells and analyzed by thin-layer chromatography as described by Mendez et al. (J. Clin. Invest. 1994 94:1698-1705) and Oram et al. (Arterioscler. Thromb. 1991 11:403-414). The radioactivity in appropriate spots was measured to determine the incorporation of radioactivity into cholesteryl esters as a measure of acyl CoA:cholesterol acyl transferase activity.

“GFFSFIGEAFQGAGDMWRAY [SEQ ID NO:5, synthetic peptide, residues 1-20 of murine SAA1.1]”: the “cholesterol efflux, time course (FIG. 4)” value with THP-1 cells was “inactive”.

Consider “GFFSFVHEAFQGAGDM [murine SAA2.11-16, 16-mer released by cyanogen bromide cleavage of murine SAA2.1, residues 1-16, reference compound]”, for which, in data set [1] (fragment released by cyanogen bromide cleavage), the “effect on cholesterol ester hydrolase activity” value is “produced no effect”. Further, the “macrophage ACAT activity” value in data set [2] is given as “profound effect inhibiting ACAT activity in a dose-dependent manner”.

Regarding “RGFFSFIGEAFQGAGDMWRAY [SEQ ID NO:7, residues 1-20 of murine SAA1.1 plus an arginine at the N-terminus]”, the “cholesterol efflux, time course (FIG. 4)” value in the data set with THP-1 cells is “effectively increased cholesterol efflux”.

B1: apoA-1: apolipoprotein isolated from acute phase murine plasma, reconstituted in liposomes (protein, UniProt Q00623 25-264, looked up)
Apolipoprotein A-I: DEPQSQWDKVKDFANVYVDAVKDSGRDYVSQFESSSLGQQLNLNLLENWDTLGSTVSQLQERLGPLTRDFWDNLEKETDWVRQEMNKDLEEVKQKVQPYLDEFQKKWKEDVELYRQKVAPLGAELQESARQKLQELQGRLSPVAEEFRDRMRTHVDSLRTQLAPHSEQMRESLAQRLAELKSNPTLNEYHTRAKTHLKTLGEKARPALEDLRHSLMPMLETLKTQVQSVIDKASETLTAQ
modifications: reconstituted in liposomes
On to B1, for which, in data set [1] (lipoproteins or protein liposomes, tissue culture), the “cholesterol ester hydrolase activity in intact cholesterol-laden macrophages” value is listed as “no effect on enzyme activities”. Moreover, the “acyl CoA:cholesterol acyl transferase activity” value in data set [3] is on record as “had no effect”. The “increase in the initial rate of cholesterol efflux to liposomes after cAMP pre-treatment versus untreated cells” value with J774 macrophages worked out at 32.7%. The “acyl CoA:cholesterol acyl transferase activity in intact cholesterol-laden macrophages” value in data set [4] is reported as “no effect on enzyme activities”.

(Values after patent publication US8703698B2, “Compositions and methods for treating atherosclerosis” (The University of Chicago, priority 2003, dated 2014).)
